Results reported in patent US20090227507A1, “Angiotensin (1-7) Dosage Forms and Uses Thereof” (UNIVERSITY OF SOUTHERN CALIFORNIA, priority 2008, published 2009).

Tests used:
[1] = Clinical chemistry in healthy men; conditions: for Potassium shift H-N, number of subjects / Potassium shift L-N, number of subjects / Potassium shift N-H, number of subjects / Potassium shift N-L, number of subjects: Chemistry; for AST/SGOT High/Low Normal/Abnormal: Subject 027, 200 μg/kg
Procedure: Safety evaluations are based on AEs, PEs, vital signs, temperature, and laboratory results from baseline to study completion. Laboratory measurements were conducted by a local clinical laboratory. Using standard procedures, blood samples were drawn or urine collected from subjects for the following laboratory tests:
Aspartate aminotransferase (AST), alanine aminotransferase (ALT), gamma, glutamyltranferase (GGT), creatinine, creatine kinase, sodium, potassium, bicarbonate (CO2), chloride, glucose, magnesium, calcium, inorganic phosphorous, blood urea nitrogen (BUN), total protein, albumin, total bilirubin, direct and indirect bilirubin, uric acid, and alkaline phosphatase,

[2] = Urinalysis with microscopic examination of sediment in healthy men; assay type: in vivo, human; conditions: Subject 011, 200 μg/kg
Procedure: Laboratory measurements were conducted by a local clinical laboratory.
Blood, urobilinogen, ketones, glucose, protein, microscopic examination of sediment, sodium, and potassium.

[3] = test system: CD34+ cells in peripheral blood; test: Flow cytometry of peripheral blood, CD34+ progenitor cells; USB003 SC once daily for 7 days in healthy men; assay type: in vivo, human; design: key to Subjects with shift, Absolute CD34, N-L (normal to low) / Subjects with shift, Absolute CD34, N-H (normal to high) / Subjects with shift, Absolute CD34, L-N (low to normal) / Subjects with shift, Absolute CD34, H-N (high to normal): — signifies subject with no shift from baseline; conditions: for CD34^+, Absolute, Mean at Baseline: Baseline (Day 1)
Procedure: • Single-center, randomized, double-blind, placebo-controlled, 2 cohort dose-escalation trial of once daily dosing over a 7-day period (7 doses total): • Cohort 1: 2 subjects treated with placebo and 8 subjects treated with 200 μg/kg USB003 (A(1-7)) • Cohort 2: 2 subjects treated with placebo and 8 subjects treated with 300 μg/kg USB003 • For each cohort, there was a Screening Period, Treatment Phase, Follow-up Period, and Study Termination or Early Withdrawal Day. Subjects were confined to the study unit during the Treatment Phase. • Cohort 2 was treated approximately 1 week after completion of the Treatment Phase for Cohort 1 to allow time for the assessment of safety and tolerability in the first cohort.
Pharmacological Effect: The following evaluations (under efficacy and safety in the protocol) were performed: • Effects on the number of mature blood cells: • 1. CBC (with differential), platelet count, reticulocyte count. • Effects on early hematopoietic progenitor cells and mature lymphocyte subsets in the periphery: • 1. Flow cytometry to evaluate frequency of peripheral blood progenitor cells (eg, CD34^+) and lymphocyte subsets (eg, CD3, CD4, CD8) in peripheral blood. • 2. Collection of blood for later possible culture for progenitor cells (eg, colony forming units-granulocyte/macrophage [CFU-GM]) to evaluate potential effects on CD34^+ hematopoietic progenitor cells in peripheral blood. • 3.
The effect of USB003 on the number of mature blood cells was assessed by the complete blood count with differential, platelet and reticulocyte counts. The effects on early hematopoietic progenitor cells and mature lymphocyte subsets in the periphery were assessed by flow cytometry. In addition, blood was collected and processed to enable culture of progenitors at a later time.
Red blood cell (RBC) count, RBC indices, white blood cell count (WBC) with differential, reticulocyte count, platelet count, hemoglobin (Hb), hematocrit (Hct), plasma hemoglobin, peripheral flow cytometry, including CD34^+, flow cytometry for enumeration of CD3, CD4, and CD8 lymphocytes, and culture for progenitor cells in peripheral blood including colony-forming units-granulocyte/macrophage (CFU-GM).

[4] = 200 μg/kg, N = 9, baseline to Day 8
[5] = 300 μg/kg, N = 8, baseline to Day 8

Asp-Arg-Val-Tyr-Ile-His-Pro [USB003]
0.88 cells/μL: CD34^+, Absolute, Mean Change from Baseline ([3]; 300 μg/kg, Day 8)
+1: Urine Glucose Value ([2]; Day 1)
−0.46 cells/μL: CD34^+, Absolute, Mean Change from Baseline ([3]; 200 μg/kg, Day 20)
−0.74 cells/μL: CD34^+, Absolute, Mean Change from Baseline ([3]; 300 μg/kg, Day 11)
−0.35 cells/μL: CD34^+, Absolute, Mean Change from Baseline ([3]; 300 μg/kg, Day 20)
no notable effects: mean change from baseline on any serum chemistry evaluations ([1]; baseline to Day 4 or Day 8)
61 IU/L: ALT, Subject 009 ([1]; 200 μg/kg, Day 14)
0.33 cells/μL: CD34^+, Absolute, Mean Change from Baseline ([3]; 200 μg/kg, Day 8)
neg: Urine Glucose Value ([2]; Day 3)
Abnormal: Urine Glucose High/Low Normal/Abnormal ([2]; Day 1)
103 IU/L: ALT, Subject 009 ([1]; 200 μg/kg, Day 8)
0.13 cells/μL: CD34^+, Absolute, Mean Change from Baseline ([3]; 200 μg/kg, Day 11)
−0.41 cells/μL: CD34^+, Absolute, Mean Change from Baseline ([3]; 300 μg/kg, Day 14)
CS AE: Urine Glucose Significance ([2]; Day 1)
1.80 cells/μL: CD34^+, Absolute, Mean Change from Baseline ([3]; 300 μg/kg, Day 3)
— (“—” = 0): ALT (SGPT) shift H-N, number of subjects [1, 4] | ALT (SGPT) shift L-N, number of subjects [1, 4] | ALT (SGPT) shift N-L, number of subjects [1, 4] | AST (SGOT) shift H-N, number of subjects [1, 4] | AST (SGOT) shift L-N, number of subjects [1, 4] | AST (SGOT) shift N-L, number of subjects [1, 4] | BUN shift H-N, number of subjects [1, 4] | BUN shift N-H, number of subjects [1, 4] | BUN shift N-L, number of subjects [1, 4] | Magnesium shift H-N, number of subjects [1, 4] | Magnesium shift L-N, number of subjects [1, 4] | Magnesium shift N-H, number of subjects [1, 4] | Total CPK shift L-N, number of subjects [1, 4] | Total CPK shift N-H, number of subjects [1, 4] | Total CPK shift N-L, number of subjects [1, 4] | ALT (SGPT) shift H-N, number of subjects [1, 5] | ALT (SGPT) shift L-N, number of subjects [1, 5] | ALT (SGPT) shift N-H, number of subjects [1, 5] | ALT (SGPT) shift N-L, number of subjects [1, 5] | AST (SGOT) shift H-N, number of subjects [1, 5] | AST (SGOT) shift L-N, number of subjects [1, 5] | AST (SGOT) shift N-H, number of subjects [1, 5] | AST (SGOT) shift N-L, number of subjects [1, 5] | BUN shift H-N, number of subjects [1, 5] | BUN shift N-H, number of subjects [1, 5] | BUN shift N-L, number of subjects [1, 5] | Magnesium shift H-N, number of subjects [1, 5] | Magnesium shift N-H, number of subjects [1, 5] | Magnesium shift N-L, number of subjects [1, 5] | Total CPK shift H-N, number of subjects [1, 5] | Total CPK shift L-N, number of subjects [1, 5] | Total CPK shift N-H, number of subjects [1, 5] | Total CPK shift N-L, number of subjects [1, 5] | Potassium shift H-N, number of subjects [1, 4] | Potassium shift L-N, number of subjects [1, 4] | Potassium shift N-H, number of subjects [1, 4] | Potassium shift N-L, number of subjects [1, 4] | Potassium shift L-N, number of subjects [1, 5] | Potassium shift N-H, number of subjects [1, 5]
dose-related change: change in the number of CD34+ cells in the peripheral blood ([3]; last day of treatment, not observed 12 days after administration)
1.11 cells/μL: CD34^+, Absolute, Mean Change from Baseline ([3]; 200 μg/kg, Day 7)
N: AST/SGOT High/Low Normal/Abnormal ([1]; Day 7 U (unscheduled)) | AST/SGOT High/Low Normal/Abnormal ([1]; Day 8) | Urine Glucose High/Low Normal/Abnormal ([2]; Day 3)
−0.40 cells/μL: CD34^+, Absolute, Mean Change from Baseline ([3]; 200 μg/kg, Day 17)
1: ALT (SGPT) shift N-H, number of subjects [1, 4] | AST (SGOT) shift N-H, number of subjects [1, 4] | BUN shift L-N, number of subjects [1, 4] | Magnesium shift N-L, number of subjects [1, 4] | Total CPK shift H-N, number of subjects [1, 4] | BUN shift L-N, number of subjects [1, 5] | Magnesium shift L-N, number of subjects [1, 5] | Potassium shift H-N, number of subjects [1, 5] | Potassium shift N-L, number of subjects [1, 5]
0.23 cells/μL: CD34^+, Absolute, Mean Change from Baseline ([3]; 200 μg/kg, Day 3)
−0.01 cells/μL: CD34^+, Absolute, Mean Change from Baseline ([3]; 300 μg/kg, Day 7)
−0.31 cells/μL: CD34^+, Absolute, Mean Change from Baseline ([3]; 300 μg/kg, Day 17)
2.55 cells/μL: CD34^+, Absolute, Mean at Baseline ([3]; 300 μg/kg)
0.61 cells/μL: CD34^+, Absolute, Mean Change from Baseline ([3]; 200 μg/kg, Day 5) | CD34^+, Absolute, Mean Change from Baseline ([3]; 200 μg/kg, Day 14)
66 IU/L: AST, Subject 009 ([1]; 200 μg/kg, Day 8)
0.56 cells/μL: CD34^+, Absolute, Mean Change from Baseline ([3]; 300 μg/kg, Day 5)
2.50 cells/μL: CD34^+, Absolute, Mean at Baseline ([3]; 200 μg/kg)
29 IU/L: AST, Subject 009 ([1]; 200 μg/kg, Day 14)
—: Subjects with shift, Absolute CD34, H-N (high to normal) ([3]; 200 μg/kg, Baseline to Day 8) | Subjects with shift, Absolute CD34, L-N (low to normal) ([3]; 200 μg/kg, Baseline to Day 8) | Subjects with shift, Absolute CD34, N-H (normal to high) ([3]; 200 μg/kg, Baseline to Day 8) | Subjects with shift, Absolute CD34, N-L (normal to low) ([3]; 200 μg/kg, Baseline to Day 8) | Subjects with shift, Absolute CD34, H-N (high to normal) ([3]; 200 μg/kg, Baseline to Day 20) | Subjects with shift, Absolute CD34, L-N (low to normal) ([3]; 200 μg/kg, Baseline to Day 20) | Subjects with shift, Absolute CD34, N-H (normal to high) ([3]; 200 μg/kg, Baseline to Day 20) | Subjects with shift, Absolute CD34, N-L (normal to low) ([3]; 200 μg/kg, Baseline to Day 20) | Subjects with shift, Absolute CD34, H-N (high to normal) ([3]; 300 μg/kg, Baseline to Day 8) | Subjects with shift, Absolute CD34, L-N (low to normal) ([3]; 300 μg/kg, Baseline to Day 8) | Subjects with shift, Absolute CD34, N-H (normal to high) ([3]; 300 μg/kg, Baseline to Day 8) | Subjects with shift, Absolute CD34, N-L (normal to low) ([3]; 300 μg/kg, Baseline to Day 8) | Subjects with shift, Absolute CD34, H-N (high to normal) ([3]; 300 μg/kg, Baseline to Day 20) | Subjects with shift, Absolute CD34, L-N (low to normal) ([3]; 300 μg/kg, Baseline to Day 20) | Subjects with shift, Absolute CD34, N-H (normal to high) ([3]; 300 μg/kg, Baseline to Day 20) | Subjects with shift, Absolute CD34, N-L (normal to low) ([3]; 300 μg/kg, Baseline to Day 20)
